Assay results taken from PMC7209288.

Experiments:
[1] = molecular target: Complement component C5 (human, wild type) (UniProt P01031); assay: SPR (Biacore); conditions: for t1/2 ratio pH7.4/pH6.0: pH 6.0-7.4, not stated (pH 7.4 and pH 6.0 compared); for KD / T1/2 (half-life of the complex): pH 7.4, 25 °C, not stated for this experiment (the 37 °C screen used 150 mM NaCl), not stated explicitly for the 25 °C runs, pH 7.4 (the 37 °C screen used HBS-EP: 10 mM Hepes)
human C5 = assay: SPR; fit not_stated; antibody as IgG; antigen as monomer; on the surface: not_stated; avidity not_told; conditions: pH 7.4; second pH 6.0
[2] = molecular target: Complement component C5 (human, wild type) (UniProt P01031); assay: SPR (Biacore T200, CM4 chip); conditions: pH 7.4, 37 °C, 150 mM NaCl, HBS-EP: 10 mM Hepes

UniProt P01031, sequence (P01031 whole entry): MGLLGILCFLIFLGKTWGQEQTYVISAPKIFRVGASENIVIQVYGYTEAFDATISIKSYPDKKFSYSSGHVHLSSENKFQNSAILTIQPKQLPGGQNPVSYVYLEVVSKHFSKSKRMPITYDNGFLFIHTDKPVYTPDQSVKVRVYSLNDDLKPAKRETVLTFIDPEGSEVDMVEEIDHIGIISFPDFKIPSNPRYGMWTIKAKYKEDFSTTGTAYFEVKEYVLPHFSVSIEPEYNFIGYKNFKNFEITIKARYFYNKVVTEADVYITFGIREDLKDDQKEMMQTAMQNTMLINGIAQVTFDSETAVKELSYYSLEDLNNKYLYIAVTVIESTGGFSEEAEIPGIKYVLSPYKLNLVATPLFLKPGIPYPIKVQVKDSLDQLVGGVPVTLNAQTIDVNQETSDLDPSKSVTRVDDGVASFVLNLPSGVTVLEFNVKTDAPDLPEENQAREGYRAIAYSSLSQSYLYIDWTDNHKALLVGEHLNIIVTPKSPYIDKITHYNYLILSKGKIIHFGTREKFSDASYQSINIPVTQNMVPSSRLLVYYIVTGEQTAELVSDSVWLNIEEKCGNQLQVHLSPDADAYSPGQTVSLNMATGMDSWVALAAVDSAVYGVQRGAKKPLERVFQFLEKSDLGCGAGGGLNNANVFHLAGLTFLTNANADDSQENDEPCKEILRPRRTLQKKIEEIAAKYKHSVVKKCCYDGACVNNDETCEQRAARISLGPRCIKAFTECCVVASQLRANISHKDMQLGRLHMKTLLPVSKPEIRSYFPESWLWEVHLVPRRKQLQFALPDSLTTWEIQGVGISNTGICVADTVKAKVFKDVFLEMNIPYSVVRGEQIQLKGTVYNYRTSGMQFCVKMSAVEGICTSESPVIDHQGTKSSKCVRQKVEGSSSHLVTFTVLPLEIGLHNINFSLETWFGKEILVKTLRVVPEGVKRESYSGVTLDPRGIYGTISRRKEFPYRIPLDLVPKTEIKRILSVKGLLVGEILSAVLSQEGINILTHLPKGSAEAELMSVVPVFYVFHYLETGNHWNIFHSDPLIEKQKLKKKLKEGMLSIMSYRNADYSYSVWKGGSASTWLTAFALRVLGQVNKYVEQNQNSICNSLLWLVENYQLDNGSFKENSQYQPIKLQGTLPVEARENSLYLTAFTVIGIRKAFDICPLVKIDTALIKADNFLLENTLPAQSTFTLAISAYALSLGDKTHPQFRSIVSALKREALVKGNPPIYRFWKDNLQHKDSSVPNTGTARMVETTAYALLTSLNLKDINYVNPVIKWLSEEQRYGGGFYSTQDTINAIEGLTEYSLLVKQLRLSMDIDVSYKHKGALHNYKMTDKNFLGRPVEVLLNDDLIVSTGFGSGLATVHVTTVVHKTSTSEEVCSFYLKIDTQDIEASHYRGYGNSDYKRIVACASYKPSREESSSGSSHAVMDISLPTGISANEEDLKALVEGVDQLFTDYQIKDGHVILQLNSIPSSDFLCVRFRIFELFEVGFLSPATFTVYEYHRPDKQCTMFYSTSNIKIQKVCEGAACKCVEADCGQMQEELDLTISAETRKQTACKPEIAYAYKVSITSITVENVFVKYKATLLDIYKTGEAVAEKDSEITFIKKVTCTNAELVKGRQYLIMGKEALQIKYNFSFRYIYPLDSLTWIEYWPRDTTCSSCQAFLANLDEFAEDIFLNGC

Row | KD [1] [nM] | T1/2 (half-life of the complex) [1] [min] | t1/2 ratio of binding hC5 at pH7.4/pH6.0 (human C5) | KD [2] [nM] | T1/2 (half-life of the complex) [2] [min] | Substance | t1/2 ratio pH7.4/pH6.0 [1]
1 | 0.301 | 104 |  |  |  | In-house eculizumab, anti-human C5 monoclonal antibody | t1/2 ratio of binding hC5 at pH7.4/pH6.0 = 5.2
2 |  |  | 3.8 |  |  | REGN3918 | 
3 | 0.189 | 61.9 |  | 0.262 | 50 | REGN3918 (pozelimab), anti-human C5 monoclonal antibody S228P (EU numbering, IgG4 hinge) | t1/2 ratio of binding hC5 at pH7.4/pH6.0 = 3.8
4 |  |  | 5.2 |  |  | In-house eculizumab | 
